Experimental findings from the nanobody polyreactivity screen of Harvey et al. (2022) are described below.

The nature of the data set: yeast display, Sf9 membrane polyspecificity reagent, FACS + sequencing; frameworks hold sequencing errors. In short, it runs like this: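 A nanobody's polyreactivity label depends on the gate it was sorted from. Yeast display cells were stained with 10% biotinylated, detergent-solubilized Sf9 membrane reagent for 1 hour at 4 °C, enriched on streptavidin microbeads and sorted by FACS. The low and high (top ~1%) gates were set on anti-HA fluorescence for expression and streptavidin fluorescence for reagent binding.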
Regarding “QVQLVESGGGLVQAGGSLRLSCAASGGIFSYNALGWYRQAPGKERELVAAISYSSTRTYYADSVKGRFTISRDNAKKTVYLQMNSLKREDTAVYYCAARLSRTRHTSDYWGQGTQVTVSS”, the “polyreactivity (PSR sort gate)” value is reported as “high polyreactivity”.

Consider “QVQLVESGGGLVQAGGSLRLSCAASGNTFYGYARGWYRQAPGKERELVASITLSGDSTYYADSVKGRFTISRDNAKNTVYLPMNSLKPEDTAVYYCNADWYFQYPYDYWGQGTQVTVSS”, for which the “polyreactivity (PSR sort gate)” value is “low polyreactivity”. For “QVQLVESGGGLVQAGGSLRLSCAASGSTIYDYTMGWYRQAPGKERELVAAISSDGSTYYADSVKGRFTISRDNAKITVYLKMNSLKPEDTAVYYCNADAGFLSLRGYDYWGQGTQVTVSS”, the “polyreactivity (PSR sort gate)” value is listed as “low polyreactivity”. The result for “QVQLVESGGGLVQAGCSLRLSCAASGFTFDGYAMVSYRQAPGKERELVAAISDSGDSTYYADSVKGRFTISRDNAKNTVYLQMISLKPEDTADYYCAAALGYYWSDYFAYDYWGQGTQVTVSS” reads “low polyreactivity”. As for “QVQLVESGGGLVQAGGSLRLSCAASGSTFYWYALGWYRQAPGKERELVASITWIGGSNTYYADSVKGRFTISRDNAKNTVYLQMNSLKPEDTAVYYCAADPGVYGQYLYSPWGYDYWGQGTQVTVSS”, the “polyreactivity (PSR sort gate)” value was “high polyreactivity”.

With “QVQLVESGGGLVQAGGSLRLRCAASGSTFAYYAMGWYRQAPGKERELVAAISSGGSTYYADSVKGRFTISRDNAKNTVYIQMNSLKAEETAVYYCNKLRVVKFKRYEFGEWGQGTQVTVSS”, the “polyreactivity (PSR sort gate)” value was “low polyreactivity”. The result for “QVQLVESGGGLVQAGGSLRLSCAASGSTFETYAMGLYRKAPGKDRELVAAITWAGDTSYADSVKGRFTISRDNAKHTVYLQMNSLKPEDTAVYYCAKDNGRAYFGRSPYDYWGQGTQVTVTS” reads “low polyreactivity”. For the sequence “QVQLVESGGGLGQAGGSLRLSCAASGRIFAGYAMGWYRQAPGKERELVAAISWSGSSTHYADSVKGRFTISRDNAKNTVYFQMNSLKPEDTAVYYCAADLKDTRLFPWFFEYDYWGQGTQVTVSS”, the “polyreactivity (PSR sort gate)” value is listed as “low polyreactivity”. For the sequence “QVQLVESGGGLVQAGGSLRLSCAASGFTFYWYAMGWYRQAPGKERQLVAAISKTGGSTYYADSVKGRFTISRDNAQKTVYLQMTSLKPEDTAVYYCNADKVATWRTHHDYWGQGTQVTVSS”, the “polyreactivity (PSR sort gate)” value is recorded as “low polyreactivity”. Consider “QVQLVESGGGLVQAGGSLRLSCAAYGSTFYVYAMGWYRQAPGKESELVAAITSAGSTNYADSVKGRFTISRDNAKYTVYLQMNSLKPEDTAVYYCAVYFDTFYGHMYYWGQCTQVTVSS”, for which the “polyreactivity (PSR sort gate)” value is “low polyreactivity”. The result for “QDQLVESGGGLVQAGGSLRLSCAASGRIFKYNAMGWYRQAPRKERELVAAITRGGSTNYADSVKGRFTISRDNAKNTVYFQLNSLKPEDTEVYYCAALRSRYGRDMDSWGQGTQVSVSS” reads “high polyreactivity”; that for “QVQLVESGGGLYQAGGSLRLSCAASGFIFDPYARGWYRQAPGKEMELVASITWYGGRTYYADSVKGRFTISRDNAKNTVYLQMNSLKPEDPAVYYCAARGYTVWDDYWGQGTQVTVSS”, “high polyreactivity”. For the sequence “QVQLVESGGGLVQAGGSLRLSCAASGSTFGLYAMGWYSQAPGKEREMVAVISWRGGSTIYADSVKGRFTISRDNAKITVYLEMNSLKPEDTAVYYCNAKQSYYYPWRGYNYWGQGTQVTVSS”, the “polyreactivity (PSR sort gate)” value is “high polyreactivity”.

On to “QVQLVESGGGLVQAGGSLRLSCAASGFTFLRNAMGWYRQAPGKERELVAAISRSDRTNYADSVKGRFTISRDNAKNTFYLQMNSLKPEDTAVYYCNARHSYWTGRRVTDDYDYWGQGTQVTVSS”, for which the “polyreactivity (PSR sort gate)” value is given as “high polyreactivity”. The result for “QVQLVESGGGLVQAGGSHRLSCAASGRTFSYYAMGWYRQAPGKEREMDADISKSGGRTYYADSLKGRFTISRDNAKNTVYLQMNSLKPEDTAVYYCAAGFYWAVYYSVDYWGQGTQVTVSS” reads “high polyreactivity”; that for “QVQLVESGGGLVQAGGSLRLSCAASGSIIYYYAMGWYRQAPGKERELVAAIRGGGSTNYADSVKGRFTISRDNAKNTVYLQMNSLKPEDTAVYYCNADYRNDCGTPLWYAYNYWGQGTQVTVSS”, “low polyreactivity”.
